In article PMC5408658, “In vitro characterization of six STUB1 variants in spinocerebellar ataxia 16 reveals altered structural properties for the encoded CHIP proteins” (Bioscience Reports, 2017):

Assays:
[1] = target: T1, His-maltose-binding protein (MBP)-CHIP fusion protein, wild type (human), Q9UNE7; assay: SEC; 1 mg MBP-CHIP fusion protein, Superdex 200 Increase 10/300 GL, 20 mM NaH2PO4 pH 7.4, 0.3 ml/min, 4°C; self-association (monomers, dimers, higher oligomers); settings: remark: other sources report otherwise
T1 chain: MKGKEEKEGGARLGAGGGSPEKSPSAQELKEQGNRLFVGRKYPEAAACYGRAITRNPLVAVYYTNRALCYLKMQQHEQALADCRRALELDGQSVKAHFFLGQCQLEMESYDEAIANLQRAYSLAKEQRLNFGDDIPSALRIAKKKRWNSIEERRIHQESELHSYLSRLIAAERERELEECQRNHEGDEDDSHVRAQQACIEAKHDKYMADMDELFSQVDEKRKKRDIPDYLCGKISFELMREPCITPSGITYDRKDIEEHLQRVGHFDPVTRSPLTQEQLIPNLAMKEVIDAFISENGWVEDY

[2] = target: the molecule itself; assay: native gel or EMSA; 10 ug MBP fusion protein on a 12% NativePAGE Bis-Tris gel, Coomassie Blue staining; self-association (oligomeric states)
[3] = target: the molecule itself; assay: SEC; 1 mg MBP-CHIP fusion protein, Superdex 200 Increase 10/300 GL, 20 mM NaH2PO4 pH 7.4, 0.3 ml/min, 4°C; self-association (monomers, dimers, higher oligomers)

B1: His-maltose-binding protein (MBP)-CHIP fusion protein, wild type, Q9UNE7-1 1-303 (enzyme)
chain: MKGKEEKEGGARLGAGGGSPEKSPSAQELKEQGNRLFVGRKYPEAAACYGRAITRNPLVAVYYTNRALCYLKMQQHEQALADCRRALELDGQSVKAHFFLGQCQLEMESYDEAIANLQRAYSLAKEQRLNFGDDIPSALRIAKKKRWNSIEERRIHQESELHSYLSRLIAAERERELEECQRNHEGDEDDSHVRAQQACIEAKHDKYMADMDELFSQVDEKRKKRDIPDYLCGKISFELMREPCITPSGITYDRKDIEEHLQRVGHFDPVTRSPLTQEQLIPNLAMKEVIDAFISENGWVEDY
stoichiometry N [1]: 2

B2: His-MBP-CHIP fusion protein, T246M (enzyme, human, UniProt Q9UNE7-1 1-303, looked up)
chain: MKGKEEKEGGARLGAGGGSPEKSPSAQELKEQGNRLFVGRKYPEAAACYGRAITRNPLVAVYYTNRALCYLKMQQHEQALADCRRALELDGQSVKAHFFLGQCQLEMESYDEAIANLQRAYSLAKEQRLNFGDDIPSALRIAKKKRWNSIEERRIHQESELHSYLSRLIAAERERELEECQRNHEGDEDDSHVRAQQACIEAKHDKYMADMDELFSQVDEKRKKRDIPDYLCGKISFELMREPCIMPSGITYDRKDIEEHLQRVGHFDPVTRSPLTQEQLIPNLAMKEVIDAFISENGWVEDY
notes: CHIP (STUB1), human, full-length cDNA in pETM-41, pathogenic SCAR16 variant T246M; Variant found in patients; made by site-directed mutagenesis; also called CHIP-T246M; MBP-CHIP T246M; source: E. coli BL21-CodonPlus (DE3)-RP, purified (Ni-NTA)
binding result [2]: binds

B3: His-MBP-CHIP fusion protein, K145Q (enzyme, human, UniProt Q9UNE7-1 1-303, looked up)
chain: MKGKEEKEGGARLGAGGGSPEKSPSAQELKEQGNRLFVGRKYPEAAACYGRAITRNPLVAVYYTNRALCYLKMQQHEQALADCRRALELDGQSVKAHFFLGQCQLEMESYDEAIANLQRAYSLAKEQRLNFGDDIPSALRIAKKQRWNSIEERRIHQESELHSYLSRLIAAERERELEECQRNHEGDEDDSHVRAQQACIEAKHDKYMADMDELFSQVDEKRKKRDIPDYLCGKISFELMREPCITPSGITYDRKDIEEHLQRVGHFDPVTRSPLTQEQLIPNLAMKEVIDAFISENGWVEDY
notes: CHIP (STUB1), human, full-length cDNA in pETM-41, pathogenic SCAR16 variant K145Q; Variant found in patients; made by site-directed mutagenesis; also called MBP-CHIP K145Q; source: E. coli BL21-CodonPlus (DE3)-RP, purified (Ni-NTA)
binding result [2]: binds

B4: His-MBP-CHIP fusion protein, S236T (enzyme, human, UniProt Q9UNE7-1 1-303, looked up)
chain: MKGKEEKEGGARLGAGGGSPEKSPSAQELKEQGNRLFVGRKYPEAAACYGRAITRNPLVAVYYTNRALCYLKMQQHEQALADCRRALELDGQSVKAHFFLGQCQLEMESYDEAIANLQRAYSLAKEQRLNFGDDIPSALRIAKKKRWNSIEERRIHQESELHSYLSRLIAAERERELEECQRNHEGDEDDSHVRAQQACIEAKHDKYMADMDELFSQVDEKRKKRDIPDYLCGKITFELMREPCITPSGITYDRKDIEEHLQRVGHFDPVTRSPLTQEQLIPNLAMKEVIDAFISENGWVEDY
notes: CHIP (STUB1), human, full-length cDNA in pETM-41, pathogenic SCAR16 variant S236T; Variant found in patients; made by site-directed mutagenesis; also called MBP-CHIP S236T; source: E. coli BL21-CodonPlus (DE3)-RP, purified (Ni-NTA)
binding result [2]: binds

B5: His-MBP-CHIP fusion protein, M211I (enzyme, human, UniProt Q9UNE7-1 1-303, looked up)
chain: MKGKEEKEGGARLGAGGGSPEKSPSAQELKEQGNRLFVGRKYPEAAACYGRAITRNPLVAVYYTNRALCYLKMQQHEQALADCRRALELDGQSVKAHFFLGQCQLEMESYDEAIANLQRAYSLAKEQRLNFGDDIPSALRIAKKKRWNSIEERRIHQESELHSYLSRLIAAERERELEECQRNHEGDEDDSHVRAQQACIEAKHDKYMADIDELFSQVDEKRKKRDIPDYLCGKISFELMREPCITPSGITYDRKDIEEHLQRVGHFDPVTRSPLTQEQLIPNLAMKEVIDAFISENGWVEDY
notes: CHIP (STUB1), human, full-length cDNA in pETM-41, pathogenic SCAR16 variant M211I; Variant found in patients; made by site-directed mutagenesis; also called MBP-CHIP M211I; source: E. coli BL21-CodonPlus (DE3)-RP, purified (Ni-NTA)
binding result [2]: binds

B6: His-MBP-CHIP fusion protein, N65S (enzyme, human, UniProt Q9UNE7-1 1-303, looked up)
chain: MKGKEEKEGGARLGAGGGSPEKSPSAQELKEQGNRLFVGRKYPEAAACYGRAITRNPLVAVYYTSRALCYLKMQQHEQALADCRRALELDGQSVKAHFFLGQCQLEMESYDEAIANLQRAYSLAKEQRLNFGDDIPSALRIAKKKRWNSIEERRIHQESELHSYLSRLIAAERERELEECQRNHEGDEDDSHVRAQQACIEAKHDKYMADMDELFSQVDEKRKKRDIPDYLCGKISFELMREPCITPSGITYDRKDIEEHLQRVGHFDPVTRSPLTQEQLIPNLAMKEVIDAFISENGWVEDY
notes: CHIP (STUB1), human, full-length cDNA in pETM-41, pathogenic SCAR16 variant N65S; Variant found in patients; made by site-directed mutagenesis; also called CHIP-N65S; MBP-CHIP N65S; source: E. coli BL21-CodonPlus (DE3)-RP, purified (Ni-NTA)
stoichiometry N [3]: 2
